Data taken from the nanobody polyreactivity screen of Harvey et al. (2022).

Test: yeast display, Sf9 membrane polyspecificity reagent, FACS + sequencing; frameworks hold sequencing errors
Procedure, shortened: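 Genes from sorted yeast were amplified by colony PCR, read by MiSeq 2 × 250 sequencing and filtered on CDR length. These cells carried a synthetic nanobody library in Saccharomyces cerevisiae BJ5465 and were sorted by FACS into low and high (top ~1%) gates on anti-HA and streptavidin fluorescence. Polyreactivity is labelled according to the gate of origin.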

Sequence | polyreactivity (PSR sort gate)
QVQLVESGGGLVQAGGSLRLSCAASGFTFRRYAMGWYRQAPGKERVLVAAITRGSSTYYADSVKGRFTISRDNEKNTVYLQMNSLKPEDTAVYYCAAAGFWSRPSDYWGQGTQVTVSS | low polyreactivity
QVQLVESGGGLVQAGGSLRLSCAASGFTFRRYDMGWYRQAPGKERELVATINRGGSTDYADSVKGRFTISRDNAKNTVYLQMNSLKAEDTAVYYCATRYYSSRTWSEYYYWGQGTKVTVSS | high polyreactivity
QVQLVESGGGLVQAGGSLRLSCAASGFTFRRYTMGWYRQAPGKERELVAAISGRGGRTYYADSVKGRFTISRDNSKNTVYLQMNSLNPEDTAVYYCAADTQYWQSSKYDYWGQGTQVTVSS | high polyreactivity
QVQLVESGGGLVQAGGSLRLSCAASGFTFRSYAMGWYRQAPGKERELVAGITWRGGRTYYADSVKGRFTISRDNAKNTVYLQMNSLKPEDTAVYYCAVRNASKNRKYYYWGQGTQVTVSS | high polyreactivity
QVQLVESGGGLVQAGGSLRLSCAASGFTFRSYTMGWYRQAPGKERELVAAITSRGTSTYYADSVKGRFTISRDNAKNTVYLQMNSLKPEDTAVYYCADPIYNGYASWQVYYWGQGTQVTVSS | high polyreactivity
QVQLVESGGGLVQAGGSLRLSCAASGFTFRTNAMGWYRQAPGKERELVAAISRSGGSTYYADSVKGRFTISRDNAKNTVYLQMNSLKPEDTAVYYCATVKVSHRRYDYWGQGTQVTLSS | high polyreactivity
QVQLVESGGGLVQAGGSLRLSCAASGFTFRTYAMGWYRQAPGKEREFVAAITTSGGSTYYADSVKGRFTISRDNAKNTVYLQMNSLKPEDTAVYYCAAKKATVVYRMEYWGQGTQVTVSS | high polyreactivity
QVQLVESGGGLVQAGGSLRLSCAASGFTFRTYAMGWYRQAPGKERELVAAISRSGGSTDYADSVKGRFTISRDTAKNTVYLQMNSLKPEHTAVYYCNAVRRAEYDYWGQGTQVTVSS | high polyreactivity
QVQLVESGGGLVQAGGSLRLSCAASGFTFRTYAMGWYRQAPGKVRELVAAITVSGGTYYADSVKGRFTISRDNAKNTVYLQMNSLKPEDTAVYYCTAKRFRTGLDYWGQGTQVTVSS | low polyreactivity
QVQLVESGGGLVQAGGSLRLSCAASGFTFRVYVMGWYREAPGKERELVAGITRTGRTYYADSVKGRFTISRDNAKNTVYLQMNSLKPEDTAVYYCAATRPYSHRDYYYWGQGTQVTVSS | high polyreactivity
QVQLVESGGGLVQAGGSLRLSCAASGFTFRWYTMGWYRQAPGKEREFVAAISSSGGSTYYADSVKGRFTISRDNAKNTVYLQMKSLKPEDTAVYYCARASRGYTYEYWGQGTQVTVSS | high polyreactivity
QVQLVESGGGLVQAGGSLRLSCAASGFTFRYNAMGWYRQAPGKERELVAAITNGGSTYADSVKGRFTISRDNAKNTVYLQMNSLKPEDTAVYYCAADYFVLTYYLWCYSPYKSFYYWGQGTQVTVSS | low polyreactivity
QVQLVESGGGLVQAGGSLRLSCAASGFTFRYNAMGWYRQAPGKERELVAGISWTSGSTYYADSVKGRFTISRDNAKNTVYLQMNSLKPEDTAVYYCAAYYRRDAALYGYWGQGTQVTVSS | high polyreactivity
QVQLVESGGGLVQAGGSLRLSCAASGFTFRYNAMGWYRQAPGKERELVATISWRGTSTYYADSVKGRFTISRDNAKNTVYLQMNSLKPEDTAVYYCAALGTVGYDYWGQGTQVTVSS | low polyreactivity
QVQLVESGGGLVQAGGSLRLSCAASGFTFRYNTMGGYRQAPGKERELVAAISSSGSSTYYADSVKGRFTISRDNAKNTVYLQMNSLKPEDTAVYYCNAVHRRTRYGYWGQGTQVTVSS | high polyreactivity
QVQLVESGGGLVQAGGSLRLSCAASGFTFRYYAMGWSRQAPGKERELVARITSGGSTNYADSVKGRFTISRDNAKNTVYLQMNSLKPEDTAVYYCAASPYRYWRMYSWGQGTQVTVSS | high polyreactivity
QVQLVESGGGLVQAGGSLRLSCAASGFTFRYYAMGWYRPAPGKEREFVAAISKSGGTTDYADSVKGRFTISRDNAKNTVYLQMSSLKPEDTAVYYCAKSGGRLWYVWRRYGYWGQGTQVTVSS | high polyreactivity
QVQLVESGGGLVQAGGSLRLSCAASGFTFRYYAMGWYRPAPGKERELVATISRGGSTNYADSVKGRFTISRDNAKNTVYLQMNSLKPEDTAVYYCNARIYKGYNYWGQGTQVTVSS | high polyreactivity
QVQLVESGGGLVQAGGSLRLSCAASGFTFRYYAMGWYRQAPGKEREFVAAISWDGGITYYADSVKGRFTISRDNAKNTVYLQMNSLKPEDTAVYYCAADVIWESDYWGQGTQVTVSS | high polyreactivity
QVQLVESGGGLVQAGGSLRLSCAASGFTFRYYAMGWYRQAPGKERELVAAISWSGGSTYYADSVKGRFTISRDNAKNTVYLQMNSLKPEDTAVYYCNAYAYYSHGVTTTYDYWGQGTQVTVSS | high polyreactivity
QVQLVESGGGLVQAGGSLRLSCAASGFTFRYYAMGWYRQAPGKERELVAAITSRGGSTYYADSVKGRFTISRDNAKNTVYLQMNSLKPEDTAVYYCAAETWRPSPYSRVSTYDYWGQGTQVTVSS | high polyreactivity

Sequence | polyreactivity (PSR sort gate)
QVQLVESGGGLVQAGGSLRLSCAASGFTFRYYAMGWYRQAPGKERELVAGITWSGTNTYYADSVKGRFTISRDNAKNTVYLQMNSLKPEDTAVYYCITSPYLHYYYWGQGTQVTVSS | high polyreactivity
QVQLVESGGGLVQAGGSLRLSCAASGFTFRYYAMGWYRQAPRKERELVAAIPRNGGSTYYADTVKGRFTISRDNAKNTVYLQMKSLKPEDTAVYYCAAAYYRDSDRRFNYWGQGTQVTVSS | high polyreactivity
QVQLVESGGGLVQAGGSLRLSCAASGFTFRYYTMGWYRQAPGKERELVAAITASGSSTYYADSVKGRFTISRDNAKNTVYLQMNSLKPEDTAVYYSKALHFYGVGRYDHWGQGNQVTVSS | high polyreactivity
QVQLVESGGGLVQAGGSLRLSCAASGFTFRYYTMGWYRQAPGKERELVASISRRGGSTYYADSVKGRFTISRDNAKNTVFLQMNSLKPEDTAVYYCNTLSQVFASRAPKFDYWGQGTQVTVSS | high polyreactivity
QVQLVESGGGLVQAGGSLRLSCAASGFTFSAYAMGWYRQAPGKERELVAAITRSGGSTYYADSVKGRFTISRDNAKNTVYLQMNSLKPEDTAVYYCAKSDRPWWGYYYQFDYWGQGTQVTVSS | low polyreactivity
QVQLVESGGGLVQAGGSLRLSCAASGFTFSAYAMGWYRQAPGKERELVASITRSGGSTYYADSVKGRFTISRDNAKNTVYLQMNCLKPEDTAVFYCAKSDRPWWGYYYQFDYWGQGTQVSVSS | low polyreactivity
QVQLVESGGGLVQAGGSLRLSCAASGFTFSCYAMGWYRQAPGKEREFVAAISRRGAITSYADSVKGRFTISRDNAKNTVYLQMNSLKPEDTAVYYCNARYPHYYYSAYNYWGQGSQVTVSS | high polyreactivity
QVQLVESGGGLVQAGGSLRLSCAASGFTFSDNAMGWDRQAPGKERELVATISQSSGSTSYADSVKGRFTISRDYAKNTVYLQLNSLKPEDTAVYSCANRRLFYWGKGTQVTVSS | low polyreactivity
QVQLVESGGGLVQAGGSLRLSCAASGFTFSENTMGWYRQAPGKERELVADIDSGGSTYYADSVKGRFTISRDNAKNTVYLQMNSLKPEVTAVYYCAIDYHVVGGQTFLFEYDYWGQGTQVTVSS | low polyreactivity
QVQLVESGGGLVQAGGSLRLSCAASGFTFSFYAIGWYRQAPGKERELVAAINYSGGRTYYADSVKGRFTISRDNAKNTVYLQMNSLKPEDTAVYYCAVHIPSVSGVTDYYYWGQGSQVTVSS | high polyreactivity
QVQLVESGGGLVQAGGSLRLSCAASGFTFSFYAMGRYRQAPGKEREYVAAITNSGGSTYYADSVKGRFTISRDNAKNTVYLQMNSLKPEDTGVYYCASKRAWPGYFTYYSWGQGTQVTVSS | high polyreactivity
QVQLVESGGGLVQAGGSLRLSCAASGFTFSGNAMGWYRQAPGKEREIVAAITARGGNTFYADSVKGRFTISRDNAKNTVYLQMNSLQPEETAVSYCKRGPYYSSSKYRFSAYHRAYWGQGNQVTVSS | high polyreactivity
QVQLVESGGGLVQAGGSLRLSCAASGFTFSGNVMGWYRQAPGKERELVAGISRSGSSTSYADSVKGRFTISRDNAKNTVYLQMNSLKPEDTAVYYCNKVKRSYYYVDTDYWGQGTQVTVSS | high polyreactivity
QVQLVESGGGLVQAGGSLRLSCAASGFTFSGYDIGWYRQAPGKERELVAGISSGGVSTTYADSVKGRFTISRDNAKNTVYLQMNSLKPEDTAVYYCNAEWTSFDWGQGTQVTVSS | low polyreactivity
QVQLVESGGGLVQAGGSLRLSCAASGFTFSINAMGWYRQAPGKERELVASITWSGGRTYYADSVKGRFTISRDNAKNTVYLQMNSLKPEDTAVYYCAARSYGTSTYDYWGQGTQETVSS | high polyreactivity
QVQLVESGGGLVQAGGSLRLSCAASGFTFSKYAMGWYRQAPGKERELVAGITWSGGRTYYADSVKGRFTISRDNAKNTVYLQLNSLIPDDSAVYYCAADPVWGRYIKYDYWGQGTQVTVSS | high polyreactivity
QVQLVESGGGLVQAGGSLRLSCAASGFTFSKYAMGWYRQAPGTERELVASIDDGGSTNYADSVKGRFTISRDNAKTTVYLQMNRLNPEDTAVYYCNASYPTGYWYYVIVQYDYWGQGTQVTVSS | low polyreactivity
QVQLVESGGGLVQAGGSLRLSCAASGFTFSKYDMGWYRQATGKERELVAAISRSAGSTYYADSVKGRFTISRDHAKNTVYLQMNSLKPEDTAVYYCARDNPRSPSGYNYWGQGTQVTVSS | high polyreactivity
QVQLVESGGGLVQAGGSLRLSCAASGFTFSKYVMGWYRQAPGKERELVAAITTSGGSTYYADSVKGRFTISRDNAKNTVYLQMNSLKPEDTAVYYCNARSLHTSEGDYWGQGTQVTVSS | low polyreactivity
QVQLVESGGGLVQAGGSLRLSCAASGFTFSLNTMGWYRQAPGKERELVAAINSGDSTYADSVKGRFTISRDNAKNTVYLQMNSLKPEDTAVYYCNADPDWWYPYNYWGLGTQVTVSS | low polyreactivity
